% specific cytotoxicity data for 1 substance are collected here from patent US20230390337A1.

This experiment has as its target high-affinity non-cleavable CD16 (hnCD16) Fc receptor. As to the kind of experiment: cell-based or functional assay.

Rituximab (antibody) came in with a % specific cytotoxicity at E:T=1:1 (ADCC against CD19 negative leukemia cells) (% specific cytotoxicity) of 75.6.
